Results reported in publication PMC2288612, “The Mre11 protein interacts with both Rad50 and the HerA bipolar helicase and is recruited to DNA following gamma irradiation in the archaeon Sulfolobus acidocaldarius” (BMC Molecular Biology, 2008).
Each block holds one binder with its values, some of them ahead of it.

Target: T1, Rad50 recombinant protein (Sulfolobus acidocaldarius) (S. acidocaldarius, UniProt O33600 1-886)
T1 construct: Rad50, Sulfolobus acidocaldarius, purified recombinant protein; source: recombinant, purified (Ni-NTA, gel filtration through Sephadex 200)
T1 sequence (looked up): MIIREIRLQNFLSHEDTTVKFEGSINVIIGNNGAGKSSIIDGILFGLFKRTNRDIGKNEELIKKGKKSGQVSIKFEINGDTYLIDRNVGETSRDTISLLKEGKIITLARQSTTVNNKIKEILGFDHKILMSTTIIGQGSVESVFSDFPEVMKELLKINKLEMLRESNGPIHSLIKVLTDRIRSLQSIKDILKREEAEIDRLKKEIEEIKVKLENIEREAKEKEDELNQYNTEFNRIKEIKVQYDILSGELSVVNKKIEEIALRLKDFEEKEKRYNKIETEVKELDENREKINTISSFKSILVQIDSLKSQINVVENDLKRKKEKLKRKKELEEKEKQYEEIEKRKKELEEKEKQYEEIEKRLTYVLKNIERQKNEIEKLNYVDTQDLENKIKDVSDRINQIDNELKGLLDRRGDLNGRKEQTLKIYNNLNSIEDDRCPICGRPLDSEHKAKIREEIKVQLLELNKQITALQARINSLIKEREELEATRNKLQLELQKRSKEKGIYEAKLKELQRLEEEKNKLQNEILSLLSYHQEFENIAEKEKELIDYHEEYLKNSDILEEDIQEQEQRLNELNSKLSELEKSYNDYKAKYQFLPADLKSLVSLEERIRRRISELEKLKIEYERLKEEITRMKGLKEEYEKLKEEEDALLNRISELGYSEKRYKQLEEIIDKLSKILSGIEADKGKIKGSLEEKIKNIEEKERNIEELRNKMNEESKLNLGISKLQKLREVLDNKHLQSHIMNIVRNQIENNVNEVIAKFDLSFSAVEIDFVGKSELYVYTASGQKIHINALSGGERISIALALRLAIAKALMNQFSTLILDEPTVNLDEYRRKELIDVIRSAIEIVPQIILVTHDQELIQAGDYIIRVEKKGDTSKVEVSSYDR
Assay: co-IP; anti-Rad50 purified IgGs and protein A-sepharose on a mixture of purified recombinant proteins (60 nM Rad50, Mre11 and NurA, 300 nM HerA) in IP buffer (20 mM Hepes pH 7.5, 100 mM NaCl, 15 mM MgCl2, 5 mM beta-mercaptoethanol); 4°C; immunoblot
Conditions: both partners purified

- binding result: binds
B1: Mre11 recombinant protein (Sulfolobus acidocaldarius) (natural protein, S. acidocaldarius, UniProt Q8NKQ0 1-382, looked up)
chain: MQLLHISDTHLGKRQYNLESREKDVYDTFTQLIDIAINEHVKAVIHTGDLFDVNNPPNRAKLHAIKELKRLKDHNIPFICIAGDHDSPKRKEEIYPQRILEEFNLIKILQKIDNRVKLENVEVYGISHISNVSVNDLKEQLSKVKPETRKSILMLHQGIRTYLPYQGAWQIELSDLPKGFSLYAVGHLHSRRKDYLDGGALIEIAGSPDIMREEEIEDYQKSKKGATLIDMSGDLPSINYINVNIRDQLVLDINVDKIEQSIESVIQKLKENVKNDKKPILHIELEGTVPIRKDVLMTKLQALRDYVEHYRIYKNNIVSIKEENLKTKLKTTYSSLNDIIADYLKGIGYTDEETKIIIDIINEEDEKKVEELLKKFAGVEDK
notes: Mre11, Sulfolobus acidocaldarius, purified recombinant protein; source: recombinant, purified (Ni-NTA, gel filtration through Sephadex 200)

- binding result: binds
B2: HerA recombinant protein (Sulfolobus acidocaldarius) (natural protein, S. acidocaldarius, UniProt F2Z5Z6 1-495, looked up)
chain: MTIGYIIGSATINEATAILEQKIRAGYYVILEYDGDKILGLITNVYTGSPLLDDNLNDVKFVQRIKQLEANKIPFFIKARIKLLCKLDGKFTQPDLPPVAGTPVRLASDEELSTVFSAGDVRIGKLIGSNVEVKIRLNPLSRHLAILAATGSGKSNTVAILSQRLVEIGGSILIFDYHGEYYDSTLPNLNIIEPKLNPLYLSVNEFATLLEIRENANIQYRIIRRTFNQLKEEINNEIKEGKTSLAELNSNFFERLKVKIEEEGRNEKRKESKDEVLNKVEDFAERYSDIIDITFGDVINKIKLGKINVVNLSSLDEDAIDAIVAHYLRRILTSRKENKIKKDSGLKFPILTVVEEAHVLLSKDTNTLTKKWAGRIAREGRKFGVGLIIVSQRPKGLDENILSQMTNKIILKIVEPSDKKYVLETSDNLSEDLADGLSSLDTGEAIIIGNVVKLPTIIKIDKFEGKLSGSDPNLTEEWKRAKEEEIVHSDVSDWG
notes: HerA bipolar DNA helicase, Sulfolobus acidocaldarius, purified recombinant protein; also called HerA bipolar helicase
